The nanobody polyreactivity screen of Harvey et al. (2022)

Assay: yeast display, Sf9 membrane polyspecificity reagent, FACS + sequencing; frameworks hold sequencing errors
Procedure, shortened: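 Synthetic nanobody libraries on Saccharomyces cerevisiae BJ5465 were galactose-induced for 36–48 hours, stained 1 hour at 4 °C with 10% biotinylated, detergent-solubilized Sf9 membrane reagent and enriched on streptavidin microbeads. FACS then separated cells into low and high (top ~1%) gates by anti-HA (expression) and streptavidin (reagent binding) fluorescence. Genes were colony-PCR amplified, MiSeq 2 × 250 sequenced and CDR-length filtered. A clone's polyreactivity label is that of its gate of origin.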

| Sequence | polyreactivity (PSR sort gate) |
| --- | --- |
| QVQLVESGGGLVQAGGSLGLSCAASGRIFARYAMGWYRQAPGKERELVAAITKSVGSTYYADSVKGRFTISRDNAKNTVYLQMNIMKPEDTAVYYCAARYRGGYYFGYETYYYWGQGTQVTVSS | high polyreactivity |
| QVQLVESGGGLVQAGGSLGLSCAASGRTFGYYAMGWYRQAPGTERALVAAIRSTGSTNYADSVKGRFTISRDNAKNTVYLQMNSLIPEDTAVYYCYAKRRFRYDYWGQGTQVTVSS | low polyreactivity |
| QVQLVESGGGLVQAGGSLGLSCAASGSTFAEYAMGWYRQAPGKERELVAVISFGDGNTYYADSVKGRVTISRDNAKNTVYLQMNSLKPEDTAVYYCNAADDSVDQSVRTLRQYEYWGQGTQVTVSS | low polyreactivity |
| QVQLVESGGGLVQAGGSLGLSCAASGSTLSAYVMGWYRQAPGKEREFVAAITWSGGNTYYADSVKGRFTISRDNAKHTVYLQMNSLKPEDTAVYFCARRGYRQSGDYWGQGTQVTVSS | low polyreactivity |
| QVQLVESGGGLVQAGGSLHLSCAASGSIFPYNLMGWYRQAPGKERELVAAISNTGSTNYADSVKGRFTISRDNAMNTVYFQMNSLKPDDTAVYYCNADGSYGFWSLLDYDYWGQGTQVTVSS | low polyreactivity |
| QVQLVESGGGLVQAGGSLLFSCAASGHIFRTYAMGWYRQAPGKERELVAAINIGGTTDYADSVKGRFTISRDNAKNTVYLQMNSLKPEDTAVYYCNAYNRFWEYVYWGQGTQVTVSS | low polyreactivity |
| QVQLVESGGGLVQAGGSLLLICAASGITFWSYAMGWYRQAPGKERELVAAISSTGSTNYADSVKGRFTISRDNAKNTVYLQMNSLKPEDTAVYYCAAEYTFWWSRTGKYYYWGQGTQVTVSS | high polyreactivity |
| QVQLVESGGGLVQAGGSLLLSCAASGFTFDYYAMGWYRQAPGKERELVAAITWSGGSTYYADSVKGRFTISRDNAKNTVYLQMNSLKPEDTAVYYCNAYYYHLYRGSTSYDYWGQGTQVTVSS | low polyreactivity |
| QVQLVESGGGLVQAGGSLLLSCAASGFTFGFNAMGWYRQAPGQERELGAAISRGGSTNYADSVKGRFTISRDNAKNTVYVQMNSLKPEDTAVYDCAADFITYVFRFYYWGQGTLVTVSS | low polyreactivity |
| QVQLVESGGGLVQAGGSLLLSCAASGFTFSYYAMGWYRQAPGKERDLVAAISWDGDSTYYADSVKGRFTISRDNAKNTVYLQMNSLKPEDTAVYYSAAEFSYYWDGYDYWGQGTQVTVSS | high polyreactivity |
| QVQLVESGGGLVQAGGSLLLSCAASGFTFTVYAMGWYILAPGKERELVAAISWNGGSTYYADSVKGRFTISRDNAKNTVYLQMNSLKPEDTAVYYCNTLQPYLYDYWGQGTQVTVSS | high polyreactivity |
| QVQLVESGGGLVQAGGSLLLSCAASGFTLPSYAMGWYIQAPGKERELVAAISSTGRTYYADSVKGRFTISRDNAKNTVYLQMNSLKPEDTAVYYCAARQDTWDAYLSTGEFDYWGQGTQVTVSS | high polyreactivity |
| QVQLVESGGGLVQAGGSLLLSCAASGGTFRVYAMGSYRQAPVKERELVAAITWRGGRTYYGDSVKGRFTISRDHAKNTVYLQMKRVKPEDTAVYFCAADRYGDLYDYWGQGTQVTVSS | high polyreactivity |
| QVQLVESGGGLVQAGGSLLLSCAASGIIFRYYAMGWYRQAPGKERELVADISSDGGTYYADSVKGRFTISLDNATNTVYLQMNSLKPEDTAVDYCAADYQFYWHYYYWGQGTQVTVSS | high polyreactivity |
| QVQLVESGGGLVQAGGSLLLSCAASGLTFVANAMGWYSQAPGKERELVARISSSGGSTYYADSVKGRFTISRDNAKNTVYLQMNSLKPEDTAVYYCTARAVRWYYSMNYWGQGTQVTVSS | high polyreactivity |
| QVQLVESGGGLVQAGGSLLLSCAASGLTFYPNAMGWYRQAPGKERELVAAISSSGDSTYSADSVKVRFTISRDNAKNTVYLQMNSLKPEDTAVYYCAADLGYYNARWYEYWGQGTQVTVSS | high polyreactivity |
